± gives the uncertainty stated by the source.
Test: self-splicing fitness, log relative to wild type (ln ratio); higher = more splicing; Tetrahymena group I intron in knt gene, E. coli kanamycin selection, DiMSum; sequences stand for … in CUCUCU…GGAGGGAAAAGUUAUCAGGCAUGCACCUGGUAGCUAGUCUUUAAACCAAUAGAUUGCAUCGGUUUAAAAGGCAAGACCGUCAAAUUGCGGGAAAGGGGUCAACAGCCGUUCAGUACCAAGUCUCAGGGGAAACUUUGAGAUGGCCUUGCAAAGGGUAUGGUAAUAAGCUGACGGACAUGGUCCUAACCACGCAGCCAAGUCCUAAGUCAACAGAUCUUCUGUUGAUAUGGAUGCAGUUCACAGACUAAAUGUCGGUCGGGGAAGAUGUAUUCUUCUCAUAAGAUAUAGUCGGACCUCUCCUUAAUGGGAGCUAGCGGAUGAAGUGAUGCAACACUGGAGCCGCUGGGAACUAAUUUGUAUGCGAAAGUAUAUUGAUUAGUUUUGGAGUACUCGUGGUCG
Outline: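 Fitness was computed with DiMSum as the error-weighted combination of replicate fold changes, kanamycin versus none, each normalised to wild type. The library randomised all eight intron nucleotides of the P1ex region, with the intron placed in the knt kanamycin-resistance gene on pET-22b(+) in E. coli BL21(DE3). Six replicate transformations were grown overnight at 37°C or 30°C on LB agar with or without 25 μg/mL kanamycin, plus 100 μg/mL carbenicillin, 50 μM IPTG and 0.2% rhamnose. Pooled colonies were amplicon-sequenced on an Illumina HiSeq 2500.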

Sequence | self-splicing fitness (ln) (30 °C) | self-splicing fitness (ln) (37 °C)
GCGAAGCAAUAUUACGACUC | -0.212 ± 0.086 | 0.367 ± 0.1
UCGAAGCAAUAUUACGAGUG | -1.56 ± 0.1 | -1.52 ± 0.15
AACUAGCAAUAUUACGCAGU | -4.36 ± 0.41 | -1.96 ± 0.21
UCAAAGCAAUAUUACGUCUU | -4.01 ± 0.18 | -3.03 ± 0.17
GGUUAGCAAUAUUACGUAGU | -1.03 ± 0.097 | -0.417 ± 0.12
UGUAAGCAAUAUUACGCAUU | -3.58 ± 0.28 | -2.08 ± 0.24
UACGAGCAAUAUUACGUUGA | -3.2 ± 0.24 | -2.73 ± 0.23
GCAUAGCAAUAUUACGCUAU | -4.09 ± 0.28 | -1.97 ± 0.25
UGUAAGCAAUAUUACGAAGU | -3.23 ± 0.47 | -2.46 ± 0.35
GAACAGCAAUAUUACGAGUG | -1.78 ± 0.081 | -1.31 ± 0.1
UCGUAGCAAUAUUACGGUAU | -2.96 ± 0.22 | -1.93 ± 0.28
AAAAAGCAAUAUUACGUUAU | -2.13 ± 0.071 | -1.55 ± 0.1
AUUCAGCAAUAUUACGUCGU | -0.283 ± 0.071 | 0.553 ± 0.085
CUAUAGCAAUAUUACGGAUC | -3.75 ± 0.4 | -2.31 ± 0.25
CUGUAGCAAUAUUACGAAGG | -1.83 ± 0.21 | -2.22 ± 0.3
AGGGAGCAAUAUUACGGUGA | -1.8 ± 0.24 | -1.66 ± 0.26
AGCCAGCAAUAUUACGCUGC | -3.09 ± 0.34 | -2.59 ± 0.26
AUCGAGCAAUAUUACGAUGG |  | -2.17 ± 0.38
CCCCAGCAAUAUUACGGUGC | -3.88 ± 0.19 | -2.73 ± 0.18
AGCUAGCAAUAUUACGGCGU | 0.111 ± 0.11 | -0.724 ± 0.13
CACAAGCAAUAUUACGUUCA | -1.31 ± 0.084 | -1.49 ± 0.089
GAGGAGCAAUAUUACGUUUU | -2.16 ± 0.13 | -1.56 ± 0.15
GCUAAGCAAUAUUACGGGUC | -2.55 ± 0.17 | -1.89 ± 0.15
CCCUAGCAAUAUUACGAAAG | -3.5 ± 0.26 | 
AGCGAGCAAUAUUACGCUUC | -3.16 ± 0.24 | -2.02 ± 0.28

Sequence | self-splicing fitness (ln) (30 °C) | self-splicing fitness (ln) (37 °C)
CGUUAGCAAUAUUACGUGUU | -4.58 ± 0.22 | -3.04 ± 0.17
UAGAAGCAAUAUUACGCGCU | -1.28 ± 0.16 | -1.85 ± 0.17
UACUAGCAAUAUUACGGGCG | -0.0495 ± 0.11 | 0.375 ± 0.14
GGACAGCAAUAUUACGAUUA | -0.666 ± 0.13 | -0.225 ± 0.12
GUACAGCAAUAUUACGAUAU | -2.07 ± 0.1 | -1.48 ± 0.13
CGAAAGCAAUAUUACGGACC | -0.938 ± 0.11 | 0.398 ± 0.13
CCCAAGCAAUAUUACGUUCG | -2.11 ± 0.14 | -2.49 ± 0.2
UGCUAGCAAUAUUACGAAAG | -2.06 ± 0.21 | -0.114 ± 0.19
GGCCAGCAAUAUUACGCCGA | -1.54 ± 0.16 | -1.18 ± 0.14
AGUGAGCAAUAUUACGAUCC | -0.375 ± 0.25 | -0.193 ± 0.22
AGCUAGCAAUAUUACGACGA | -1.17 ± 0.12 | -0.734 ± 0.14
GUAGAGCAAUAUUACGAAUG | -3.89 ± 0.3 | -2.16 ± 0.21
UUCGAGCAAUAUUACGGUUU | -4.44 ± 0.36 | -1.93 ± 0.22
UACUAGCAAUAUUACGUCAU | -2.66 ± 0.2 | -1.74 ± 0.13
GGGCAGCAAUAUUACGUCGU | -0.45 ± 0.11 | -0.185 ± 0.1
UAGGAGCAAUAUUACGCAUG | -1.64 ± 0.2 | 0.135 ± 0.15
AUCGAGCAAUAUUACGUAUU | -3.67 ± 0.21 | -2.5 ± 0.18
UGGGAGCAAUAUUACGGCAA | -2.97 ± 0.47 | -0.863 ± 0.32
UGGUAGCAAUAUUACGGUCC | -2.05 ± 0.29 | -1.24 ± 0.33
GGUGAGCAAUAUUACGAGGG | -3.16 ± 0.26 | -2.43 ± 0.24
UGGAAGCAAUAUUACGCGCA | -0.534 ± 0.13 | 0.365 ± 0.13
AGAAAGCAAUAUUACGUGCC | -0.45 ± 0.12 | -0.309 ± 0.16
CCCAAGCAAUAUUACGCAAA | -3.35 ± 0.13 | -2.71 ± 0.14
GCGCAGCAAUAUUACGUAAC | -1.3 ± 0.088 | -0.468 ± 0.12
AUACAGCAAUAUUACGCGUU | -3.01 ± 0.14 | -0.461 ± 0.099

Sequence | self-splicing fitness (ln) (30 °C) | self-splicing fitness (ln) (37 °C)
AAGUAGCAAUAUUACGGGAU | -3.14 ± 0.15 | -1.61 ± 0.14
UACUAGCAAUAUUACGCUGA | -2.48 ± 0.16 | -1.37 ± 0.15
AAGGAGCAAUAUUACGUGAG | -3.51 ± 0.25 | -2.5 ± 0.21
GUUGAGCAAUAUUACGUUCG | -1.34 ± 0.086 | -1.67 ± 0.11
CACUAGCAAUAUUACGUUAC | -3.4 ± 0.14 | -2.77 ± 0.16
GCGGAGCAAUAUUACGUAGU | -2.12 ± 0.23 | 0.836 ± 0.34
AGUCAGCAAUAUUACGGUCA | -0.726 ± 0.11 | -0.323 ± 0.1
CCUCAGCAAUAUUACGCAAG | -3.31 ± 0.17 | -1.71 ± 0.14
GAAUAGCAAUAUUACGUCCU | -1.05 ± 0.11 | 0.425 ± 0.15
UGAAAGCAAUAUUACGGCAC | -3.23 ± 0.16 | -1.48 ± 0.14
GGAAAGCAAUAUUACGCGGC | -2.98 ± 0.41 | -2.03 ± 0.45
UACGAGCAAUAUUACGCAGC | -3.16 ± 0.34 | -3.83 ± 0.46
ACGAAGCAAUAUUACGGUCG | -0.954 ± 0.066 | -0.311 ± 0.082
UCCGAGCAAUAUUACGGUCA | -0.946 ± 0.067 | -0.671 ± 0.057
UACUAGCAAUAUUACGGUGC | -3.29 ± 0.26 | -2.04 ± 0.31
UGCAAGCAAUAUUACGUUAC | -2.91 ± 0.27 | -2.41 ± 0.24
AGCAAGCAAUAUUACGUGAA | -2.21 ± 0.068 | -1.95 ± 0.11
GUCGAGCAAUAUUACGGAAU | -2.48 ± 0.16 | -1.12 ± 0.14
AAAUAGCAAUAUUACGCCAU | -3.75 ± 0.25 | -2.36 ± 0.24
CUUCAGCAAUAUUACGGGCU | -3.81 ± 0.27 | -2.83 ± 0.31
UGAAAGCAAUAUUACGUUAG | -1.1 ± 0.086 | -0.448 ± 0.096
CGAUAGCAAUAUUACGCUGU | -3.12 ± 0.4 | -2.15 ± 0.31
GCUAAGCAAUAUUACGACCU | -0.833 ± 0.1 | 0.599 ± 0.12
CAGCAGCAAUAUUACGAACU | -2.68 ± 0.16 | -2.11 ± 0.14
GCUAAGCAAUAUUACGACCC | -0.411 ± 0.11 | 0.239 ± 0.14
